Patent publication US20210002363A1 (PHANES THERAPEUTICS, published 2021)
Numbering of substitutions follows the chain as printed.

Key:
[1] = target: T1, Recombinant extracellular domain of human FOLR1 (Novoprotein, Cat#: C784) (human, UniProt P15328 25-233, limits assumed); experiment: ELISA on immobilized FOLR1 extracellular domain; O.D. 450 nm
T1 construct: Bought reagent; also called recombinant FOLR1; immobilized FOLR1 extracellular domain

[2] = target: T1, Recombinant extracellular domain of …; experiment: as above; remark: listed apart in the source
[3] = target: T2, FOLR1 on SK-OV-3 cells (ATCC HTB-77) (Homo sapiens (Human), UniProt P15328 25-234); experiment: FACS on SK-OV-3 cells; Alexa Fluor 488 F(ab')2 goat anti-human IgG Fc; MFI
T2 construct: Endogenous FOLR1 of the cell line; also called cells that are known to express FOLR1
T2 sequence (P15328 25-234 limits assumed): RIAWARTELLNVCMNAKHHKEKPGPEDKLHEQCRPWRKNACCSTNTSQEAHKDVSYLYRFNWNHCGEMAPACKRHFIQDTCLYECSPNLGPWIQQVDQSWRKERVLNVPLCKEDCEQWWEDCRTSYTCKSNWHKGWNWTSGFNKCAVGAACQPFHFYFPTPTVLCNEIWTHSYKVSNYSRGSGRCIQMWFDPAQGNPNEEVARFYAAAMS
Experimental: To assess the binding of the chimeric anti-FOLR1 mAbs to cells that are known to express FOLR1, SK-OV-3 (ATCC® HTB-77™) cells were plated at 80,000 cells per well on a 96-well non-binding U-bottom plate (Greiner Bio-One, Cat#: 650901). In some experiments, 90,000 cells per well were used. The cells were incubated in 50 μL FACS buffer (HBSS with 0.1% BSA and 0.05% sodium azide) containing mAbs at different concentrations on ice for 15 minutes. After wash, cells were incubated in 50 μL FACS buffer containing 3.5 μg/mL F(ab′)2-Goat anti-Human IgG Fc conjugated to Alexa Fluor® 488 (Invitrogen, Cat#: H10120) on ice for 15 minutes in dark and washed again. Cells were analyzed using an Attune NxT flow cytometer. MFI, mean fluorescence intensity.

[4] = target: T1, Recombinant extracellular domain of …; experiment: SPR (Biacore 8k), mAb captured on protein A chip, recombinant FOLR1 as analyte, 1:1 model
Experimental: The interaction of the chimeric anti-FOLR1 mAbs and FOLR1 was measured by Surface Plasmon Resonance (SPR) (Biacore 8k, GE Healthcare). Briefly, an anti-FOLR1 mAb was immobilized to a protein A sensor chip (GE Healthcare, Cat#: 29-1275-56) in HBS-P buffer (0.01 M HEPES pH 7.4, 0.15 M NaCl, 0.05% v/v Surfactant P20) with an injection flow rate at […]. The recombinant FOLR1 (Novoprotein, Cat#: C784) at variant concentrations was loaded with the flow rate of 30 μL/min in HBS-P buffer. Following antigen loading, the surface was regenerated with 10 mM glycine-HCl (pH 1.5). Sensor grams were fit with a 1:1 binding model using Biacore 8k evaluation software (GE Healthcare).

[5] = target: T1, Recombinant extracellular domain of …; experiment: ELISA on plate-coated recombinant human FOLR1 extracellular domain; anti-human IgG-HRP; O.D. 450 nm
Experimental: The Purified chimeric mAbs were tested in an ELISA assay for their ability to bind to immobilized human FOLR1. Recombinant extracellular domain of human FOLR1 (Novoprotein, Cat#: C784) in carbonate coating buffer was coated on a 96-well plate at room temperature for 1 hour. The plate is blocked by 5% BSA in TBST for 1 hour at room temperature. In each well of an individual plate, mAbs at various concentrations were incubated for 1 hour at room temperature. The plate was washed and the binding to FOLR1 was detected by anti-human IgG conjugated to horseradish peroxidase (hIgG-HRP) (ThermoFisher Scientific, Cat#: H10007) with incubation for 1 hour at room temperature. Then after washing, the ELISA was developed using One-step Detection Solution (ThermoFisher Scientific, Cat#: 34028) and measured as the absorbance at 450 nm.

[6] = target: T2, FOLR1 on SK-OV-3 cells (ATCC HTB-77); experiment: FACS on SK-OV-3 cells; MFI
[7] = target: T1, Recombinant extracellular domain of …; experiment: ELISA on immobilized FOLR1 extracellular domain; O.D. 450 nm; remark: listed apart in the source
[8] = target: T2, FOLR1 on SK-OV-3 cells (ATCC HTB-77); experiment: FACS on SK-OV-3 cells; MFI; remark: listed apart in the source
[9] = target: T1, Recombinant extracellular domain of …; experiment: ELISA on immobilized FOLR1 extracellular domain; O.D. 450 nm; remark: listed apart in the source
[10] = target: T2, FOLR1 on SK-OV-3 cells (ATCC HTB-77); experiment: FACS on SK-OV-3 cells; MFI; remark: listed apart in the source
[11] = target: T1, Recombinant extracellular domain of …; experiment: ELISA on immobilized FOLR1 extracellular domain; O.D. 450 nm; remark: listed apart in the source
[12] = target: T2, FOLR1 on SK-OV-3 cells (ATCC HTB-77); experiment: FACS on SK-OV-3 cells; MFI; remark: listed apart in the source
[13] = target: T2, FOLR1 on SK-OV-3 cells (ATCC HTB-77); experiment: FACS on SK-OV-3 cells; MFI; remark: listed apart in the source
[14] = target: T1, Recombinant extracellular domain of …; experiment: ELISA on immobilized FOLR1 extracellular domain; O.D. 450 nm; remark: listed apart in the source
[15] = target: T2, FOLR1 on SK-OV-3 cells (ATCC HTB-77); experiment: FACS on SK-OV-3 cells; MFI; remark: listed apart in the source
[16] = target: T1, Recombinant extracellular domain of …; experiment: ELISA on immobilized FOLR1 extracellular domain; O.D. 450 nm; remark: listed apart in the source
[17] = target: T2, FOLR1 on SK-OV-3 cells (ATCC HTB-77); experiment: FACS on SK-OV-3 cells; MFI; remark: listed apart in the source
[18] = target: T2, FOLR1 on SK-OV-3 cells (ATCC HTB-77); experiment: FACS on SK-OV-3 cells; MFI; remark: listed apart in the source

T1 sequence (P15328 25-233 limits assumed): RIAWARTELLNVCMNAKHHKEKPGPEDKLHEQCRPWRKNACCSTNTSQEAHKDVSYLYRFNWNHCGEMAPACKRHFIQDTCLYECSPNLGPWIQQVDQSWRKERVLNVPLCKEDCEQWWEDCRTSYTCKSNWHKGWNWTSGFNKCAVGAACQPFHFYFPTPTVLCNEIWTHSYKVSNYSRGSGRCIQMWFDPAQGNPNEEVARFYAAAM

B1: chimeric anti-FOLR1 mAb F17 (antibody, V domains shown)
VH: DVQLVESGGGLVQPGGSRKLSCAASGFTFSDFGMHWIRQAPERGLEWVAYMSYTPGTFHYADTVKDRFFISRDNAKNTLFLQMTSLRSDDTAMYYCARVHVGTVDYWGQGTSVTVSS
VL: DVVLTQSPATLSVTPGDSVSLSCRASQNINNNLHWFQQKSHESPRLLIKYASQSISGIPSRFSGSGSGTDFTLSINNVETEDFGIYFCQQSNSWPALTFGTGTKVELK
notes: also called Chimeric mAb F17
EC50 (read off the curve) [1]: 0.2 to 0.3 nM | EC50 (read off the curve) [2]: 0.2 to 0.3 nM | EC50 (read off the curve) [3]: ~0.8 nM | Kd [4]: 0.265 nM | EC50 (read off the curve) [5]: 0.1 to 0.2 nM

B2: F5-H1L2 (antibody, V domains shown)
VH: EVQLLESGGGLVQPGGSLRLSCAVSGFTFSNYGMSWVRQAPGKGLEWVATISSGGSYTYYPDSVKGRFTISRDNSKNTLYLQMNSLRAEDTAVYYCSTQGSSGYVGYWGQGTLVTVSS
VL: DIQMTQSPSSVSASVGDRVTITCKASQDITNFIGWYQHKPGKAPKLLISYTSILESGVPSRFSGSGSGTDYTLTISSLQPEDFATYYCLQYYNLWTFGGGTKVEIK
notes: also called humanized F5 mAb H1L2
EC50 (read off the curve) [6]: ~0.9 nM | EC50 (read off the curve) [7]: 0.2 to 0.3 nM

B3: F5-H2L2 (antibody, V domains shown)
VH: B2 VH with L5V
VL: B2 VL
notes: also called humanized F5 mAb H2L2
EC50 (read off the curve) [6]: ~0.9 nM | EC50 (read off the curve) [7]: 0.2 to 0.3 nM

B4: F10-H1L1 (antibody, V domains shown)
VH: EVQLVQSGAEVKKPGSSVKVSCKASGYAFSSSWMNWVRQAPGQGLEWIGRIYPGDGYTHYNGMFKGRASLTADKSTSTGYMELSSLRSEDTAVFFCTRHGDFPYWYFDVWGRGTLVTVSP
VL: DIQMTQSPSTLSASVGDRVTITCRASENIDSYLAWYQQKPGRAPKLLVYAATNLAVGVPSRFSGSGSGTEYTLTISSLQSDDFATYYCQHHYSTPPTFGQGTKLEIK
notes: also called humanized F10 mAb H1L1
EC50 (read off the curve) [8]: ~3 nM | EC50 (read off the curve) [9]: 0.1 to 0.2 nM

B5: F10-H1L2 (antibody, V domains shown)
VH: B4 VH
VL: B4 VL with S80P
notes: also called humanized F10 mAb H1L2
EC50 (read off the curve) [10]: ~3 nM | EC50 (read off the curve) [11]: ~0.3 nM

B6: F10-H2L1 (antibody, V domains shown)
VH: B4 VH with P120S
VL: B4 VL
notes: also called humanized F10 mAb H2L1
EC50 (read off the curve) [12]: ~3 nM

B7: F20-H1L2 (antibody, V domains shown)
VH: QVQLVQSGAEVKKPGSSVKVSCKASGYTFASYYLYWVRQAPGQGLEWIGEINPRSGGTNFNEKFKSRATVTVDKSTSTAYMELSSLRSEDTAVYYCSRSGRLRGFYTMDYWGQGTLVTVSS
VL: DIVMTQSPDSLAVSLGERATINCKAGENVGSYVSWYQQKPGQSPKLLIYGASNRYTGVPDRFSGSGSATDFTLTISSLQAEDVAVYYCGQTYRFLTFGQGTKVEIK
notes: also called humanized F20 mAb H1L2
binding result [13]: binds | binding result [14]: binds

B8: F20-H2L4 (antibody, V domains shown)
VH: B7 VH with K74A
VL: DIQMTQSPSTLSASVGDRVTITCKAGENVGSYVSWYQQKPGKAPKLLIYGASNRYTGVPARFSGSGSATEFTLTISSLQPEDFATYYCGQTYRFLTFGQGTKVEVK
notes: also called humanized F20 mAb H2L4
EC50 (read off the curve) [15]: ~3 nM | EC50 (read off the curve) [16]: ~0.2 nM

B9: F20-H3L3 (antibody, V domains shown)
VH: B7 VH with R67K, S77N
VL: B8 VL with E81D
notes: also called humanized F20 mAb H3L3
EC50 (read off the curve) [17]: ~1 nM | EC50 (read off the curve) [14]: 0.2 to 0.3 nM

B10: F17-H1L2 (antibody, V domains shown)
VH: EVQLVETGGGLIQPGGSLRLSCAASGFTFSDFGMHWIRQAPGKGLEWVAYMSYTPGTFHYADTVKDRFTISRDNSKNTLYLQMNSLRAEDTAVYYCARVHVGTVDYWGQGTLVTVSS
VL: EVVLTQSPATLSLSPGERATLSCRASQNINNNLHWFQQKPGQAPRLLIKYASQSISGIPARFSGSGSGTDFTLTISSLETEDFAVYFCQQSNSWPALTFGQGTKVEIK
notes: also called humanized F17 mAb H1L2
EC50 (read off the curve) [18]: ~0.9 nM | EC50 (read off the curve) [2]: ~0.2 nM
